2 molecules from patent US20220089705A1 can be followed below.

Assay [1] concerns the target aP2 (species not stated in the passage) (Homo sapiens (Human)) (UniProt P15090). Nature of the assay: column head 'Affinity'; assay and aP2 species not printed on the sheet (the two other values of the column, 6.03 and 5.82 µM, equal the human aP2 averages of FIG. 31).
For assay [2] the target is unchanged. Nature of the assay: SPR and Octet ranking of H3 variants; value of the parent H3; species of aP2 not stated.

As a reminder, the Kd is the concentration at which binding is half-saturated.

B1: CA33, rabbit-mouse hybrid anti-aP2 monoclonal antibody (Rabbit Ab 909) (antibody, V domains shown)
VH: QSVEESGGRLVTPGTPLTLTCTVSGFSLSTYYMSWVRQAPGKGLEWIGIIYPSGSTYCASWAKGRFTISKASTTVDLKITSPTTEDTATYFCARPDNDGTSGYLSGFGLWGQGTLVTVSS
VL: DVVMTQTPASVSEPVGGTVTIKCQASEDISRYLVWYQQKPGQPPKRLIYKASTLASGVPSRFKGSGSGTDFTLTISDLECDDAATYYCQCTYGTYAGSFFYSFGGGTEVVVE
With B1, the Kd in assay [1] was determined as 6.5 µM.

B2: H3, mouse anti-aP2 monoclonal antibody (H3 gL1/gH1) (antibody, V domains shown)
VH: QVQLQQPGAELVKPGASVKLSCKASGYTFTSNWITWVKQRPGQGLEWIGDIYPGSGSTTNNEKFKSKATLTVDTSSSTAYMQLSSLTSEDSAVYYCARLRGYYDYFDFWGQGTTLTVSS
VL: EVVLTQSPALMAASPGEKVTITCSVSSSISSSNLHWYQQKSETSPKPWIYGTSNLASGVPVRFSGSGSGTSYSLTISSMEAEDAATYYCQQWSHYPLTFGAGTKLELK
For the molecule B2, the Kd in assay [2] is below 0.07 µM.
